Experimental data reported in the supplement of paper PMC11780869.

Tested on: Bacillus subtilis
Assay: cleaved RNA product abundance (RNA/gDNA barcode ratio) relative to median wild-type variant (ratio to wild type); higher = more accumulation of the downstream cleavage product
Description: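 MPRA in B. subtilis. Mutagenized RNase Y cleavage-site regions (9% mutation rate) were inserted into a barcoded reporter mRNA (truncated aprE or tetM). Cells were grown in LB at 37°C to OD600 0.3. The cleaved RNA isoform was gel-purified and its barcodes counted; the RNA:gDNA barcode ratio was normalised to the median wild-type variant, and the median over barcodes is reported per variant. The printed sequence is the variable window only; the reporter flanks are not printed.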

[1] = experiment (reporter, strain, medium): exp 8a: truncated aprE reporter, strain BJT201 with 2% xylose (RNase J1 expressed), cleavage site: glnRA (positions -5 to +31 mutated)
[2] = experiment (reporter, strain, medium): exp 4a: truncated aprE reporter, strain BJT201 with 2% xylose (RNase J1 expressed), cleavage site: cggR-gapA (positions -7 to +36 mutated)
[3] = experiment (reporter, strain, medium): exp 2b: truncated aprE reporter, strain BJT200, cleavage site: cggR-gapA (positions -7 to +36 mutated)
[4] = experiment (reporter, strain, medium): exp 6: tetM reporter, strain 168, cleavage site: cggR-gapA (positions -7 to +36 mutated)

## CGACATGTCCCGCTTCTTTCATTAATCCGTTAGCAAGTGTTTTGCTATATACATCTACCTTTTAAGAGGAGGAAT
[1]
  cleaved RNA product abundance: 0.494

## ACAGACGAAGGAGCCGCAAAGAAGTTAGTAAGGGATGAATAATACCTCAATATAAATATCTCTCACTTATTTAAA
[2]
  cleaved RNA product abundance: 0.151

## CGACATGTCCCGCTTCTTTCATTAATCCATTAGCAACTGTTTTTCTATATACATTTACCTTTTAAGAGGAGGAAT
[1]
  cleaved RNA product abundance: 0.319

## ACAGACGAAGGAGCCGCAAAGAAGTTATTAAAGGGTGAATAATCCCTCAATATAAATATCTCTCACTTATTTAAA
[2]
  cleaved RNA product abundance: 0.202

## ACAGACGAAGGAGCCGCGAAGAAGTTATTAAGGGATCAATAATCCCTCAATATAAATATCTCTCACTTATTTAAA
[2]
  cleaved RNA product abundance: 0.762

## ACAGACGAAGGAGCCGCAAAGAAGTTATTAAAGGATGAATAATCCCTTAATATAAATATCTCTCACTTATTTAAA
[3]
  cleaved RNA product abundance: 1.16
[2]
  cleaved RNA product abundance: 1.06

## ACAGACGAAGGAGCCGCAAAGAAGTTATTAAGGAATGAATAATCCCTCAATATAAATATTTCTCACTTATTTAAA
[2]
  cleaved RNA product abundance: 0.136

## CGACATGTCCCGCTTCTTTCATTAATCCGTTATTAACTGTTTTACTATATACATTTACCTTTTAAGAGGAGGAAT
[1]
  cleaved RNA product abundance: 0.408

## ACAGACGAAGGAGCCGCAAAGAAGTTAAAAAAGGATGAATAATCCCTCAATATAAATATCTCTCACTTATTTAAA
[2]
  cleaved RNA product abundance: 0.227

## ACAGACGAAGGAGCCGCAAAGCAGTTATTAAGTGATGAATAATCCCTCAATATAAATATCTCTCACTTATTTAAA
[2]
  cleaved RNA product abundance: 0.0809

## ACAGACGAAGGAGCCGCAAAGAAGTTATTAAGGGATGAATAATCTCTCAATATAAATATCTCTCACTTATTTAAA
[3]
  cleaved RNA product abundance: 0.688
[2]
  cleaved RNA product abundance: 0.738
[4]
  cleaved RNA product abundance: 0.96

## ACAGACGAAGGAGCCGCAAAGAAGTTATTAAGGGATGAATAATCCCTCAATATAAATATCTCTCACTTTTTAAAG
[2]
  cleaved RNA product abundance: 0.879

## ACAGACGAAGGAGCCGCAAACAAGTTATTAAGGGATGAATAATCCCTCAAAATAAATATCTCTCACTTATTTAAA
[3]
  cleaved RNA product abundance: 0.194
[2]
  cleaved RNA product abundance: 0.257

## CGACATGTCCCGCTTCTTTCATTAATCCGTTAGCGACTGTTTAGCTATATACATTTACCTTTTAAGAGGAGGAAT
[1]
  cleaved RNA product abundance: 0.681

## CGACATGTCCCGCTTCTTTCATTAATTCGTTAGCAACTGATTTGCTATATACATTTACCTTTTAAGAGGAGGAAT
[1]
  cleaved RNA product abundance: 0.876

## CGACATGTCCCGCTTCTTTCATTAATCCGTTAGCAACTTTTTTTCTATATACATTTACCTTTTAAGAGGAGGAAT
[1]
  cleaved RNA product abundance: 0.658

## CGACATGTCCCGCTTCTTTCATTAATCCGGTAACAACTGTTTTGCTATATACATTTACCTTTTAAGAGGAGGAAT
[1]
  cleaved RNA product abundance: 0.34

## ACAGACGAAGGAGCCGCAAAGAAGATATTACGGGATGAATAATCCCTCAATATAAATATCTCTCACTTATTTAAA
[3]
  cleaved RNA product abundance: 0.409
[2]
  cleaved RNA product abundance: 0.351

## CGACATGTCCCGCTTCTTTCATTAATCCGTTAGCAACAGTTTTGCTATATACATATACCTTTTAAGAGGAGGAAT
[1]
  cleaved RNA product abundance: 1.16

## ACAGACGAAGGAGCCGCAAAGAAGCTATTAAGGGATAAATAATCCCTCAATATAAATATCTCTCACTTATTTAAA
[3]
  cleaved RNA product abundance: 0.479

## ACAGACGAAGGAGCCGCAAAGAAGTTATAAAGGGATGAAAAATCCCTCAATATAAATATCTCTCACTTATTTAAA
[2]
  cleaved RNA product abundance: 0.4

## CGACATGTCCCGCTTCTTTCATTAATCCATTAGCAACTGTTTTGCTATATACATTTTCCTTTTAAGAGGAGGAAT
[1]
  cleaved RNA product abundance: 0.292

## ACAGACGAAGGAGCCGCAAAAAAGTTATTAAGAGATAAATAATCCCTCAATATAAATATCTCTCACTTATTTAAA
[2]
  cleaved RNA product abundance: 0.0994

## CGACATGTCCCGCTTCTTTCATTACTCCGTTAACAACTGTTTTGCTATATACATTTACCTTTTAAGAGGAGGAAT
[1]
  cleaved RNA product abundance: 0.261

## ACAGACGAAGGAGCCGCAAAGAAGTTACTAAGGGATGAACAATCCCTCAATATAAATATCTCTCACTTATTTAAA
[2]
  cleaved RNA product abundance: 0.266

## ACAGACGAAGGAGCCGCAAAGAAGTTATGAAAGGATGAATAATCCCTCAATATAAATATCTCTCACTTATTTAAA
[2]
  cleaved RNA product abundance: 0.178

## CGACATGTCCCGCTTCTTTCATTAATCCGTTAGCCAATGTTTTGCTATATACATTTACCTTTTAAGAGGAGGAAT
[1]
  cleaved RNA product abundance: 0.576

## ACAGACGAAGGAGCCGAATAGAAGTTATTAAGGGATGAATAATCCCTCAATATAAATATCTCTCACTTATTTAAA
[4]
  cleaved RNA product abundance: 0.727

## ACAGACGAAGGAGCCGCAAAGAAGTTATTAATGGATGAATAATCCCGCAATATAAATATCTCTCACTTATTTAAA
[2]
  cleaved RNA product abundance: 0.144

## ACAGACGAAGGAGCCGCGAAGAAGTTATTAACGGATGAATAATCCCTCAATATAAATATCTCTCACTTATTTAAA
[3]
  cleaved RNA product abundance: 0.164
[2]
  cleaved RNA product abundance: 0.185

## CGACATGTCCCGCTTCTTTCATTAATCAGTTAACAACTGTTTTGCTATATACATTTACCTTTTAAGAGGAGGAAT
[1]
  cleaved RNA product abundance: 0.249

## CGACATGTCCCGCTTCTTTCATTAATCCGTTAGCAATTGTTTTGATATATACATTTACCTTTTAAGAGGAGGAAT
[1]
  cleaved RNA product abundance: 0.65

## ACAGACGAAGGAGCCGCAATGAAGTTATTAACGGATGAATAATCCCTCAATATAAATATCTCTCACTTATTTAAA
[2]
  cleaved RNA product abundance: 0.145

## CGACATGTCCCGCTTCTTTCATTAATCCGATTGCAACTGTTTTGCTATATACATTTACCTTTTAAGAGGAGGAAT
[1]
  cleaved RNA product abundance: 0.294

## ACAGACGAAGGAGCCGCAAAGAAGTTATTAAGATATGAATAATCCCTAAATATAAATATCTCTCACTTATTTAAA
[2]
  cleaved RNA product abundance: 0.101

## ACAGACGAAGGAGCCGCAAAGAAGATATTAATGGATGAATAATCCCTCAATATAAATATCTCTCACTTATTTAAA
[3]
  cleaved RNA product abundance: 0.132
[2]
  cleaved RNA product abundance: 0.173

## CGACATGTCCCGCTTCTTTCATTAATCCGTTAGCAACTGGTTTGCTGTATACATTTACCTTTTAAGAGGAGGAAT
[1]
  cleaved RNA product abundance: 0.0825

## ACAGACGAAGGAGCCGCAAAGCAGTTATTAAGGGATGAATAATCCCTAAATATAAATATCTCTCACTTATTTAAA
[2]
  cleaved RNA product abundance: 0.591

## ACAGACGAAGGAGCCGCAAAGAAGTTATTAAGGGATGAATAATCCCCAAATATAAATATCTCTCACTTATTTAAA
[3]
  cleaved RNA product abundance: 0.336

## ACAGACGAAGGAGCCGCAAAGAAGTTATTAAGTGATGAATAATCTCTCAATATAAATATCTCTCACTTATTTAAA
[3]
  cleaved RNA product abundance: 0.113
[2]
  cleaved RNA product abundance: 0.172

## CGACATGTCCCGCTTCTTTCATTAATCCTTTAGCAACTGCTTTGCTATATACATTTACCTTTTAAGAGGAGGAAT
[1]
  cleaved RNA product abundance: 0.292

## ACAGACGAAGGAGCCGCAAAGAAGTTAATAAGGGATGAATAATCCCTCAATATAAATCTCTCTCACTTATTTAAA
[2]
  cleaved RNA product abundance: 0.218

## ACAGACGAAGGAGCCGCAAAGAAGTTATTAGGGGATGAATAATCACTCAATATAAATATCTCTCACTTATTTAAA
[3]
  cleaved RNA product abundance: 0.114
[2]
  cleaved RNA product abundance: 0.112

## CGACATGTCCCGCTTCTTTCATTATTTCGTTAGCAACTGTTTTGCTATATACATTTACCTTTTAAGAGGAGGAAT
[1]
  cleaved RNA product abundance: 1.59

## ACAGACGAAGGAGCCGCAATGAAGTTATTAAGGGATGAATAATCTCTCAATATAAATATCTCTCACTTATTTAAA
[3]
  cleaved RNA product abundance: 0.942
[2]
  cleaved RNA product abundance: 0.845

## CGACATGTCCCGCTTCTTTCATTAAACCGTTAGCAACTGTTTTGCTATATAGATTTACCTTTTAAGAGGAGGAAT
[1]
  cleaved RNA product abundance: 1.35

## ACAGACGAAGGAGCCGCAAAGAAGTAATTAAGGGATGAATAATCCCTCAAAATAAATATCTCTCACTTATTTAAA
[3]
  cleaved RNA product abundance: 0.16
[2]
  cleaved RNA product abundance: 0.215

## CGACATGTCCCGCTTCTTTCATTACTCCGTTAGCAACTTTTTTGCTATATACATTTACCTTTTAAGAGGAGGAAT
[1]
  cleaved RNA product abundance: 2.09

## ACAGACGAAGGAGCCGCAAAGAAGTTATTAAGGGATAAATAATCCCTCAATATAAAAATCTCTCACTTATTTAAA
[2]
  cleaved RNA product abundance: 0.943

## CGACATGTCCCGCTTCTTTCATTAATCCGTTAGCAACTGTTTAGCTATATACATTTGCCTTTTAAGAGGAGGAAT
[1]
  cleaved RNA product abundance: 0.326

## ACAGACGAAGGAGCCGCAAAGAAGTTATTAAGGGATGAATAATCGCTCATTATAAATATCTCTCACTTATTTAAA
[3]
  cleaved RNA product abundance: 0.0605

## ACAGACGAAGGAGCCGCAAAGGAGTTTTTAAGGGATGAATAATCCCTCAATATAAATATCTCTCACTTATTTAAA
[2]
  cleaved RNA product abundance: 0.369

## ACAGACGAAGGAGCCGCAAAGAATTTATTAAGGGATGAATAATCCCACAATATAAATATCTCTCACTTATTTAAA
[2]
  cleaved RNA product abundance: 0.259

## CGACATGTCCCGCTTCTTTCATTAATCCGTTAGATACTGTTTTGCTATATACATTTACCTTTTAAGAGGAGGAAT
[1]
  cleaved RNA product abundance: 0.273

## ACAGACGAAGGAGCCGCAAAGAAGTTATTAAGGGAATGAATAATCCCTCAATATAAATATCTCTCACTTATTTAA
[2]
  cleaved RNA product abundance: 0.604

## ACAGACGAAGGAGCCGCAAAGAATTTATTAAGGGATGAATAATCCCTCTATATAAATATCTCTCACTTATTTAAA
[3]
  cleaved RNA product abundance: 0.363
[2]
  cleaved RNA product abundance: 0.543

## CGACATGTCCCGCTTCTTTCATTAATCCGTTAGCAACTGATTTGCTATATACATTTACCCTTTAAGAGGAGGAAT
[1]
  cleaved RNA product abundance: 0.843

## ACAGACGAAGGAGCCGCAAAGAAGTTATTAAGGGATGAATAATCCTTCAATATATATATCTCTCACTTATTTAAA
[2]
  cleaved RNA product abundance: 0.604

## ACAGACGAAGGAGCCGCGAAGAAGTTATTAAGGGATGAATAATTCCTCAATATAAATATCTCTCACTTATTTAAA
[2]
  cleaved RNA product abundance: 0.684
